In patent US20250179143A1, “SYSTEMS AND METHODS FOR CHAPERONE-MEDIATED LIGAND EXCHANGE ON MHC-I AND MHC-RELATED MOLECULES USING CHICKEN TAPBPR” (priority 2022, published 2025):
Values belong to the substance of their own block, whether it stands above or below them.

What was measured:
1G4 TCR [1] = test: flow cytometry; PE tetramer (1 µg/mL) on human T cells transduced with the 1G4 TCR; tetramer from TAPBPR-catalysed peptide exchange; no percent sign printed
1G4 TCR [2] = test: flow cytometry; PE tetramer (1 µg/mL) on human T cells transduced with the 1G4 TCR; tetramer from conventional refolding; no percent sign printed
[3] = target: MR1 C262S loaded with acetyl-6-formylpterin (Ac-6-FP) (UniProt Q95460); test: SPR; MR1 C262S/Ac-6-FP, 10 to 100 µM, over hTAPBPR^RQ-biotin on a streptavidin chip; steady-state fit in the inset
[4] = target: HLA-A*24:02/hb2m/VYGJVRACL (peptide-loaded) (human); test: SPR; HLA-A*24:02/[..], 0.1 to 10 µM, over chicken TAPBPR-biotin on a streptavidin chip; kinetic fit
[5] = target: peptide-deficient (empty) HLA-A*01:01/hb2m (human); test: SPR, TAPBPR-biotin on streptavidin chip, UV-irradiated (empty) HLA as analyte
[6] = target: peptide-deficient (empty) HLA-A*24:02/hb2m (human); test: as above
[7] = target: peptide-deficient (empty) HLA-A*29:02/hb2m (human); test: as above
[8] = target: peptide-deficient (empty) HLA-A*11:01/hb2m (human); test: as above
[9] = target: peptide-deficient (empty) HLA-B*37:01/hb2m (human); test: as above
[10] = target: peptide-deficient (empty) HLA-A*30:01/hb2m (human); test: as above
[11] = target: peptide-deficient (empty) HLA-G*01:01/hb2m (human); test: as above
[12] = target: peptide-deficient (empty) HLA-A*68:02/hb2m (human); test: as above
[13] = target: peptide-deficient (empty) HLA-A*02:01/hb2m (human); test: as above
[14] = target: peptide-deficient (empty) HLA-B*08:01/hb2m (human) (UniProt P01889); test: as above
[15] = target: MR1 C262S loaded with acetyl-6-formylpterin (Ac-6-FP) (UniProt Q95460); test: SPR, TAPBPR-biotin on streptavidin chip, Ac-6-FP loaded MR1 C262S as analyte
[16] = target: HLA-B*08:01/hb2m/FLRGRAJGL (peptide-loaded) (human)
[17] = target: HLA-F*01:01/hb2m/LILRWE(bF)D (human); test: SPR; HLA-F*01:01/hb2m/LILRWE(bF)D, 0.0625 to 2 µM, over chTAPBPR-biotin on a streptavidin chip; kinetic fit
[18] = target: HLA-A*01:01/hb2m/STAPGJLEY (peptide-loaded) (human); test: cell-based or functional assay
[19] = target: HLA-A*29:02/hb2m/VFAQVKQJY (peptide-loaded) (human); test: SPR, TAPBPR-biotin on streptavidin chip, peptide-loaded HLA as analyte
[20] = target: HLA-A*24:02/hb2m/VYGJVRACL (peptide-loaded) (human); test: as above
[21] = target: MR1 C262S loaded with acetyl-6-formylpterin (Ac-6-FP) (UniProt Q95460); test: SPR; MR1 C262S/Ac-6-FP, 10 to 100 µM, over hTAPBPR^KRQ-biotin on a streptavidin chip; steady-state fit in the inset
1G4 TCR [22] = test: flow cytometry; PE tetramer (1 µg/mL) on human T cells transduced with the 1G4 TCR; negative control; no percent sign printed

tet+ (share of events in the tetramer-positive live gate) (1G4 TCR [1]): 38.7
Substance: Exchanged A2/M4A (NY-ESO-1) (from UniProt A*02:01) (peptide-MHC)

tet+ (share of events in the tetramer-positive live gate) (1G4 TCR [1]): 2.18
Substance: Exchanged A2/W5A (NY-ESO-1) (from UniProt A*02:01) (peptide-MHC)

tet+ (share of events in the tetramer-positive live gate) (1G4 TCR [1]): 71.4
tet+ (share of events in the tetramer-positive live gate) (1G4 TCR [2]): 78.7
Substance: NY-ESO-1 (HLA-A*02:01/… tetramer) (peptide-MHC)

Kd [3]: 49.5 µM
Substance: hTAPBPR^RQ (K211R, R270Q) (from UniProt Q9BX59 22-405)

Substance: chicken TAPBPR luminal domain (chTAPBPR)
Kd [4]: 0.37 µM
Kd [5]: 1.46 µM
Kd [6]: 1.68 µM
Kd [7]: 0.29 µM
Kd [8]: 0.91 µM
Kd [9]: 2.19 µM
Kd [10]: 1.28 µM
Kd [11]: 11.2 µM
Kd [12]: 0.43 µM
Kd [13]: 2.96 µM
Kd [14]: 1.89 µM
Kd [15]: 19.2 µM
-TΔS [16]: -11.5 kcal/mol
ΔG [16]: -4.5 kcal/mol
ΔH [16]: 7 kcal/mol
Kd [17]: 0.76 µM
kapp of fluorescent peptide binding at 5 uM chaperone (FP) [18]: 0.00017 s⁻¹
Kd [19]: 0.17 µM
Kd [20]: 17.4 µM

tet+ (share of events in the tetramer-positive live gate) (1G4 TCR [1]): 72.1
Substance: Exchanged S1A (NY-ESO-1) (from UniProt A*02:01) (peptide-MHC)

Kd [21]: 62 µM
Substance: hTAPBPR^KRQ (R105K, K211R, R270Q) (from UniProt Q9BX59 22-405)

Kd [15]: 98.7 µM
Substance: human TAPBPR luminal domain (hTAPBPR) (from UniProt Q9BX59 22-405)

Substance: Refolded Rubella (from UniProt A*02:01) (peptide-MHC)
tet+ (share of events in the tetramer-positive live gate) (1G4 TCR [22]): 0.75
